Results: patent publication US20070020258A1 (published 2007)

Experiments:
[1] = target: T1, human IgE (ND and PS allotypes) (human, UniProt P01854-1 1-428, tracer iodinated with 125I (chloramine T)); experiment: 125I-IgE equilibrium binding, Scatchard
T1 construct: IgE used for the Scatchard Kd; also called 125I IgE; unlabelled IgE
Experimental: e. Scatchard analysis was performed utilizing a Fortran program (scanplot) based on the Ligand program written by P. Munson at NIH. Scatplot uses a mass action equation fitting bound as a function of total using the Rodbard type regression analysis.

[2] = target: T2, human IgE purified from U266B1 cells (human, UniProt P01854-1 1-428); experiment: IgE/FcεRI inhibition ELISA
T2 construct: domain: Fcε4; Whole IgE; its X residues are spacers that keep Kabat numbering and are not part of the protein; also called U266 IgE; U266 IgE standard
T2 sequence (P01854 other isoform, or with tags, fused parts or gaps): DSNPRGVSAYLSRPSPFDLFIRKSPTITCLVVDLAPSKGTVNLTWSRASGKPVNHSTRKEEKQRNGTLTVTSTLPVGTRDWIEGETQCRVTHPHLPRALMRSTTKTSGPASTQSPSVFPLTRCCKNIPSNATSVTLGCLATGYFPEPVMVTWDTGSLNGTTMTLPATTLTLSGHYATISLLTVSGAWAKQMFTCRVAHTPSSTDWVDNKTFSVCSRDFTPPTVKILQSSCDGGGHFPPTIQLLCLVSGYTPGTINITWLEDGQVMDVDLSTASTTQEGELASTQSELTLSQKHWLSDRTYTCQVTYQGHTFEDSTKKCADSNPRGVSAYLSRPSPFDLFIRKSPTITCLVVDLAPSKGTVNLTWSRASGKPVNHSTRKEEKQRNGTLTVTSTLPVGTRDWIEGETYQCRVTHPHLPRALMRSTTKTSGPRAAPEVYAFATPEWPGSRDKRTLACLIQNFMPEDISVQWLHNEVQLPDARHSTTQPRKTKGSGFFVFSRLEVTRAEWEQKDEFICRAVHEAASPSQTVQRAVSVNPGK
Experimental: A 96-well assay plate (Manufn Nunc.) was coated with 0.05 ml of the FcεRI alpha chain IgG1 chimeric receptor in 1 μg/ml coating buffer ([…] carbonate/bicarbonate, pH 9.6). Assay was done for 12 hours at 4-8° C. The wells were aspirated and 250 μl blocking buffer (PBS-1% BSA pH 7.2) was added and incubated for one hour at 4° C. […] The FcεRI-coated wells were washed three times with PBS-0.05% Tween20, and then 50 μl from the sample wells were transferred and incubated with agitation for 30 minutes at 25° C. 50 μl/well of streptavidin-HRP diluted 1:5000 in assay buffer was incubated for 15 minutes with agitation and then the plate was washed as before. 50 μl/well of Microwell peroxidase substrate (Kirkgaard & Parry Laboratories) was added and color was developed for 30 minutes.

T1 sequence (P01854 other isoform, or with tags, fused parts or gaps): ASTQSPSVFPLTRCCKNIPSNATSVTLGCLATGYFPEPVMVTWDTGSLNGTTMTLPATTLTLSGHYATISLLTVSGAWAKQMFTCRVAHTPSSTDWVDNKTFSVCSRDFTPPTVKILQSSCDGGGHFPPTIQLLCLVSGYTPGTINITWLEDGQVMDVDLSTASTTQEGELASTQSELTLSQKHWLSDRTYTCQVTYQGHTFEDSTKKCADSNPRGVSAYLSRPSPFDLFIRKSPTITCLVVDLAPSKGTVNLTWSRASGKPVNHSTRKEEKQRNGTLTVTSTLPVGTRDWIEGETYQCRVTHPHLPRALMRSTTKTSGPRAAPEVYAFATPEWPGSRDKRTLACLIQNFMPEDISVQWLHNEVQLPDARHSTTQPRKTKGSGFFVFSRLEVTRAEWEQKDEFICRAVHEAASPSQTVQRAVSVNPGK

Row | Binder | Kd [1] | ratio Var. X / IgL1H1 [2] | ratio Var. X / MaE11 [2]
1 | MAE11 (antibody, V domains shown, murine IgG1) VH: DVQLQESGPGLVKPSQSLSLACSVTGYSITSGYSWNWIRQFPGNKLEWMGSITYDGSSNYNPSLKNRISVTRDTSQNQFFLKLNSATAEDTATYYCARGSHYFGHWHFAVWGAGTTVTVSS VL: DIVLTQSPASLAVSLGQRATISCKASQSVDYDGDSYMNWYQQKPGQPPILLIYAASYLGSEIPARFSGSGSGTDFTLNIHPVEEEDAATFYCQQSHEDPYTFGAGTKLEIK | 30 nM | 0.06 | 1
2 | MAE13 (antibody, V domains shown, murine IgG1) VH: DVQLQESGPGLVKPSQSLSLTCTVTGYTITSDNAWNWIRQFPGNKLEWMGYINHSGTTSYNPSLKSRISITRDTSKNQFFLQLNSVTTEDTATYYCAWVVAYAMDYWGQGTSVTVSS VL: DIVMTQSQKFMSTSVGDRVSVTCKASQNVSSNVAWYQQKPGQSPKALIYSASYRYSGVPDRFTGSGSGTDFTLTISNVQSEDLAEYFCQQYYTYPLYTFGGGTKLEIKR | 50 nM |  | 
3 | MAE15 (antibody, V domains shown, murine IgG1) VH: DVQHQESEPDLVKPSQSLSLTCTVTGYSITSGYNRHWIRQFPGNKLEWMGYIHYSGSTNYNPSLKRRISITRDTSKNQFFLQLNSVTTEDTATYYCARGSIYYYGSRYRYFDVWGAGTTVTVSS VL: DIQLTQSPASLAVSLGQRATISCKASQSVDYDGDSYMNWYQQKPGQPPKLLIYAASNLESGIPARFSGSGSGTDFTLNIHPVEEEDAATYYCQQSNEDPFTFGAGT | 70 nM |  | 
